{"source": "the RNAGym collection of RNA variant scans (doi:10.1073/pnas.2313332121)", "parents": {"B1": {"name": "TPR t1 (parent)", "chain": "GACCAAUCUGCCCUCAGAGCUCGAGAACAUCUUCGGAUGCAGAGGAGGCAGGCUUCGGUGGCGCGAUAGCGCCAACGUCCUCAACCUCCAAUGCAUCCCACCACAUGAUGAUGCCUGAAGAGCCUUGGUUUUUUG"}}}
{"variants_of": "B1", "experiment": "polymerase ribozyme fitness, log enrichment relative to wild type (log ratio); higher = more active; in vitro selection for triplet polymerase activity", "in_short": "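Each subunit of a heterodimeric triplet polymerase ribozyme was represented by a PCR-built, transcribed mutant library that underwent triplicate single-round in vitro selection with frozen incubation at −7 °C. Extended constructs were recovered by gel excision, streptavidin-bead capture and RT-PCR, and Illumina sequencing of input and output libraries kept genotypes with ≥10 input reads and ≥1 read per output. Fitness is the logarithm of genotype enrichment relative to wild-type enrichment, from inverse-variance-weighted replicate averages, with a logarithm base of 2.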"}
{"variant": "GACCAAUCUGCCCUCAGAGCUCGAGAACAUCUUCGGAUGCAGAGGAGACAGGCUUCGGUGGCACGAUAGCGCCAACGUCCUCAACCUCCAAUGCAUCCCACCACAUGAUGAUGCCUGAAGAGCCUUGGUUUUUUG", "note": "[G48A G63A]", "polymerase ribozyme fitness (log ratio)": -1.14}
{"variant": "GACCAUUCUGCCCUCAGAGCUCGAGAACAUCUUCGGAUGCAGAGGAGGCAGGCUUCGGUGGCGCGAUAGCACCAACGUCCUCGACCUCCAAUGCAUCCCACCACAUGAUGAUGCCUGAAGAGCCUUGGUUUUUUG", "note": "[A6U G71A A83G]", "polymerase ribozyme fitness (log ratio)": -1.85}
{"variant": "GACCAAUCUGCCCUCAGAGCUCGAGAACAUCUUCGGAUGCAGAGGAGGCAGGCUUCGGUGGCGCGAUAGCGACAACGUCCUCAACCUCCAAAGCAUCCCACCACAUGAUGAUGCCUGAAGAGCCUUGGUUUUUUG", "note": "[C72A U92A]", "polymerase ribozyme fitness (log ratio)": -2.67}
{"variant": "GACCAAUCUGUCCUCAGAGCUCGAGAACAUCUUCGGAUGCAGAGGAGGCAGGCAUCGGUAGCGCGAUAGCGCCAACGUCCUCAACCUCCAAUGCAUCCCACCACAUGAUCAUGCCUGAAGUGCCUUGGUUUUUUG", "note": "[C11U U54A G60A G110C A121U]", "polymerase ribozyme fitness (log ratio)": -4.92}
{"variant": "GACCAAUCUGCCCUCAGAGCUCGAGAACAUCUUCGGAUGCAGAGGAGGCAGGCUUCGGUGGCGCGAUAGCGCCAACGUCCUCAACCUCCAAUGCAUCCCACCACAUGAUGAUGCCUGAUGAGCCUUUGUUUUUUG", "note": "[A119U G127U]", "polymerase ribozyme fitness (log ratio)": -2.01}
{"variant": "GACCAAUCUGCCCUCAGAGCGCGAGAACAUCUUCGGAUGCAGAGGAGGCAGGCUUCGGUGGCGCGGUAGCGCAAACGUCCUCAACCUCCAAUGAAUCCCACCACAUGAUGAUGCCUGAAGAGCCUUGGUUUUUUG", "note": "[U21G A66G C73A C94A]", "polymerase ribozyme fitness (log ratio)": -4.63}
{"variant": "GACCAAUCUGCCCUCAGAGCUCGAGAACAUCUUCGGUUGUAGAGGAGGCCCGCUUCGGUGGCGCGAUAGCGCCUACGUCCUCAACCUCCAAUGCAUCCCACCACAUGAAGAUGCCUGAAGAGCCUUGGUUGUUUG", "note": "[A37U C40U A50C G51C A74U U109A U131G]", "polymerase ribozyme fitness (log ratio)": -5.36}
{"variant": "GACCAAUCUGCCCUCAGAGUUCGAGAACAUCUUCGGAUGCAGAGUAGGCAGACUUCGGUGGCGCGAUAGCGCGAACGUCCUCAACCUCCAAUGUAUCCCACCAUAUGAUGAUGCCUGAAGAGCCUUGGUUUUUUG", "note": "[C20U G45U G52A C73G C94U C104U]", "polymerase ribozyme fitness (log ratio)": -4.54}
{"variant": "GACCAAUCUGCCCUCAGAGCUCGAGAACAUCUUCGGAUGCAGAGGAUGCAGGCUUCGGUGGCGCGAUAGCGCCAACGUCCUCAACCUCCAAUGCACCCCACCACAUGAUGAUGCCUGGAGAGCCUUGGUUUUUUG", "note": "[G47U U96C A118G]", "polymerase ribozyme fitness (log ratio)": -1.69}
{"variant": "GACCAAUCUGCCCUCAGAGCUCGAGAACAUCUUCGGAUGUAGCGGAGGCAGGCUUCGGUGGCGUGAUAGCGCCAACGUCCUCAACCUCCAAUCCAUCCCACCACAUGAUGAUGCAUGAAGAGCCUUGGUUUUUUG", "note": "[C40U A43C C64U G93C C115A]", "polymerase ribozyme fitness (log ratio)": -2.31}
{"variant": "GACCAAUCUGCCCUCAGUGCUCGAGAACAUCUUCGGAUGCAGAGGGGGCAGACUUCGGUGGCGCGAUAGCGCCAACGUCCUCAACCUCCAAUGCAUCCCACCACAUGAUGAUGCCUGUAGAGCCUUGGUUUUUUG", "note": "[A18U A46G G52A A118U]", "polymerase ribozyme fitness (log ratio)": -2.9}
{"variant": "GACCAAUCUGCCCUCAGAGCUCGAGAACAUCUUCGGAUGCAGAGGAGGCAGGCUUCGGGGGCGCGAUAGCGCCAACGUCCUCAACCUCCAAGGCAUCCCACCACAUGAUAAUGCCUGAAGAGCCUUGGUUUUCUG", "note": "[U59G U92G G110A U133C]", "polymerase ribozyme fitness (log ratio)": -4.4}
{"variant": "GACCAAUCUGCCCUCAGAGCUCGAGAACAUCUUCGGAUGCAGAGGAGGCAGGCUUCGGUGACGCGAUAGCGCCAACGUCCUCAACUUCCAAUGCAUCCCACCACAUGAUGAUGCCUGAAGAGCCUUGGUUUUUUG", "note": "[G61A C86U]", "polymerase ribozyme fitness (log ratio)": -0.712}
{"variant": "GACCAAUCUGCGCUCAGAGCUCGAGAACAUCUUCGGAUGCAGAGGAGGCAGGCUUCGGUGGCGCGAUAGCGCCAACGUCCUUAACCUCCAAUGCAUCCCACCACUAGAGGAUGCCUGAAGAGCCUUGGUUUUUUG", "note": "[C12G C82U A105U U106A U109G]", "polymerase ribozyme fitness (log ratio)": -1.76}
{"variant": "GACCAAUCUGCCCUCAGAGCUCGAGAACAUCUUCGGAUGCAGAGGAGGAAGGCUUCGGUGGCGCGAUAGCGCCAACGUCCUCAACCUCCAACGCAUCCCACCACAUGAUGAUGCCUGAAGAGCCUUGGUUUUUUG", "note": "[C49A U92C]", "polymerase ribozyme fitness (log ratio)": -1.43}
{"variant": "GACCAAUCUGCCCUUAGAGCUCGAGAACAUCUUCGGAUGCAGAGGAGGCAGGCUUGGGUGUCGCGGUAGCGCUAACGUCCUCAACCUCCAAUGGAUGACACCACAUGAUGAGGCCUGACGAGCCUUGGUUUUUUC", "note": "[C15U C56G G61U A66G C73U C94G C97G C98A U112G A119C G135C]", "polymerase ribozyme fitness (log ratio)": -5.66}
{"variant": "GACCAAUCUGCCCUCAGAGAUCGAGAACAUCUUCGGAUGCAGAGGAGGCAGGCAUCGGUGGCGCGAUAGCGCCAACGUCCUCAACCUCCAAUGCAUCCCACCACAUGAUGAUGCCUGAAGAGCCUUGGUUGUUUG", "note": "[C20A U54A U131G]", "polymerase ribozyme fitness (log ratio)": -3.27}
{"variant": "GACCAAUCUGCCCUCAGAGCUCGAGAACAUCUUCGGAUGCAGAGGAGGCAGGCUUAGGCGGCGCGAUAGCGCCAACGUCCUCAACCCCCAAUGCAUCCCACCACAUGAUGAAGCCUGAAGAGCCUUGGUUUUUUG", "note": "[C56A U59C U87C U112A]", "polymerase ribozyme fitness (log ratio)": 0.408}
{"variant": "GACCAAUCUGCCCUCAGAGCUCGAGAACAUCUUCGGAUGCAGAGGAGGCAGCCUUCGGUGGCGCGAUAGCGCCAACGUCCUCGACCUCCAAUGCAUCCCACCACAUGAUGAUGCCUGAAGAGCCUUGGUUUUUUG", "note": "[G52C A83G]", "polymerase ribozyme fitness (log ratio)": -1.31}
{"variant": "GACCAAUCUGCCCUCAGAGCUCGAGAACAUCUUCGGAUGCAGAGGAGUCAGGCUUCGGUGGCGCGAUAGCGCCAACGUCCUCAACCGCCAAUGCAUCCCACCACAUGAUGAUGCCUGAAGAGCCUUGGUUUUGUG", "note": "[G48U U87G U133G]", "polymerase ribozyme fitness (log ratio)": -0.334}
{"variant": "GACCAAUCUGCCCUCACAGCUCGAGAACAUCUUCGGAUGCAGAGGAGGCAGGCUUCGGUGGCGCGAUAGCGCCAACGUCCUCAACCUCCAAUGCAUCCCACCACAUGAUGAUGCCUGAAGAGCCUUGGAUUUUUG", "note": "[G17C U129A]", "polymerase ribozyme fitness (log ratio)": -5.13}
